The series is described as follows: label from the status in PepcDB records.
With “MKKIAIFGSAFNPPSLGHKSVIESLSHFDLVLLEPSIAHAWGKNMLDYPIRCKLVDAFIKDMGLSNVQRSDLEQALYQPGQSVTTYALLEKIQEIYPTADITFVIGPDNFFKFAKFYKAEEITERWTVMACPEKVKIRSTDIRNALIEGKDISTYTTPTVSELLLNEGLYR”, the protein production entry is recorded as “not failed”.

Take “MKVYPKVSIVMPVYNSERYLAEAIESILDQTYNDFEFIIVDDGSTDESYNIISSYANKDNRIIVISREHRGLVDSLNEGINIARGKYIARMDADDISINNRIEKQFEFLELNKDVDILGTRIEAFGDIDEKQKTIYNSAFSIKFDSQNIEQVFLTSCAIPHPSVMFKKDSIVKLRGYRKEYDTAEDYDLWLRAIRNGYKIVRMDECLIKYRVHNKSKTAVEMFNPKMVEYTMKAKIDYINDTNKKDKVDYLIWGASTGGKLVKKVVESTTDKFNLIGFIDKYKEGEVDECRIYKPEDLMKLHSDYVFIATLPGKEEADEFLKNCGLKKFKEYISLVLEHHHHHH”: the protein production entry is “failed”.

With “MSDFNKYCEEAAREALPDSEDEEDIGDEDTCSAQDLAAEFQLKYKPQDEVSVSLQREYVLSLAADQGFSRMAAGLSNSAVHIYNLDSGAGKLENFSYLPPTDSPQSVSICGVRFLDEGPHNILVGTTDGYVRLYDLRLRGEQARFKYTQHPNVPPVPKSLSCFDRNANGRIICCGTEQFHSNAFLVFFDVRERQQMGVYFESHEDDITSLRFHAQNPDLLATGSVDGLVNVFDVKEPDEDEALLNTFNTESSVARLAWHRNVYDKDIISCVTTTGDFKSYECEEGDEVASFERPDVTAAIRRKKAANFNLINAHNQEDGGVFLLAGTNFNKGEILRSVSVTSKNSLQPLANFQGNKQIVRDSLFDSKRSLLFTGGESGIVTVWAQDASGTAFSSEKLKARKEKKSRKQAPY”, the protein production entry was “failed”.

Turning to “MTKDRQIKKTKTAIYSAFIALLQKKEYSKITVRDMITLANVGRSTFYAHYESKEMLLKELCEELFHHLFRQKRNVTFEDYLVHILKHFEQNKDSIATLLLSNDPYFLLRFKNELEHDVYPNLRCKYIDKTTIPEVFLKQFVLSSFIETLKWWLHQRQRMSANELLKYYLELIK”, the protein production entry is “failed”.

With “MKNTIDVENDSIIAFTGGRIFTMDSEQKHAETVVINGGCIAAVGDRSILKSFPNAKIRDLKGRVLLPAFIDSHNHLSSFGCFFPTWANLIGLTEKGSVLEEIQLQTRKKPGKGWIVGFGWFDAKIGGVDLTKNDLDEISSDRPVLLIQATFHQSVVNSRALELVGITRSTPDPRCGIILRESDGMPTGVLVECAQVPVFRLAMEADTGTLANLIEAHAKELLKFGITAVHDPGVTPAAEAAYQKLHSEERLPVSVLMMPHGETILDNQLGYRLHGPVTGVGDERLRVGPVKLFADGATEETVAFSLKIGGQTINSGNYRDDFEEMLFAATEKGFRVCVHSFGNVTTDAVLTAFENAVTRAPAGFEMRPRLEHVTLISTSQIKRLAAMGGCACIQPQFLSRAQNTKQVVLDDGKWYAYGDLVKGGVTVASGSDNPGGFMDARDPIEGSVMGSTMSDGAGNAIFPDQVLPFEQWLWMYTAGGAYAGGQEKERGMLKKGMVADLVVLEGNLDPKNPPVVAETWVAGKQVYDHRV”, the protein production entry is listed as “failed”.

In the case of “METLSDVFATFSQRGDTTAFVHRTGVRRYVFTYLDLHALSLRMNRWLADQGVGEGDRVVLWGPNSPWWAVAFWGIVTRGAVAVPVDFMSGAERAEIIAGLTDAKLVIQSRDKLDRLTGRPSVLLEELGFLLEAVEPLATTHRPAPDDMAELIYTSGTTGNPKGVILTHRNLVANILQVNRHIPVVTPDFSFLSLLPLSHMFEQMGGFFTPLYRGAAIVYIRTLKPSAIMEALGEEDIYAIIAVPRLLQLLKGSVERELEAKGLGSIFRWLLKVGERMSRGGRSVLFRPIQRKFGRNFALFVSGGAPLDPEVFRFWNGLGFRVVEGYGLTECSPVLTANTMERQVMGSVGTPLDGVELRLEEGEILARGDNIFPGYFRNEEATRGAFVDGWFRTGDLGELDPDGWLRIKGRSKELIVTGAGVNVYPDEIEAILNRTQGVREGCVIGLDRGKGEEVHGVLILDGSGRPTEEIVNEVNAKFDELHRITSFSVWPEAEFPKTTTLKIRKFQVKERIEQGGGALGDGRGADRLTALVATITGSPLEQVTEGALLVNDLGLTSIARLELVNALEMEFRLDLEDSVIGPQTRVADLREIVSRREKVHIREHFRIWAMGGVALAVRRLLDTVLHGPLLRAFVTLKSLGIENLEAADGPVMFVSNHLSYLDQPAIMCVLPDAWRYNTATAAWEEFFFRNFKNLPQRLWKRFTYEYASVAFTVFPLPQSRGFRGALHFMGTLADQGMNILLFPEGERSRDGRLLPFQQGLGVMIRELGVPVVPVRIRGLEKVLPRGASWPQKGEVSITFGKPIHFRGESPTEIVDRARRAVEDLLEHHHHHH”, the protein production result is “failed”.

As for “MPHPATMFLLLTMAVVFLSWICDIYGLKVTLPQSGEDIRVQSLLSPEGIRWWLRNAIKNFTGFAPLGMVIIAMFGLGVAQHSGFIDACIRLGVGNRKEKRKVILWVIVLGLLSNVIGDGGYIILLPIAAMLFQWVGLHPIAGIVTAYVSVACGYSANIVLSTMDPLLAHTTQEAALTLMGYQGNTEPLCNYFFMSASTVVITGIVYWVTQKWLLPNLGKYEGSVKVEAYRPLSRKERRALMVAVVVAGIYVALILWLTFSSYGILRGVNGGLMHSPFIAGILFLLSLGAGFTGMAYGFSSGRYRSDNDVIEGLTQPIKLLGVYFVIAFFAAQMFACFEYSHLDKCLAIMGADLLSSFEPAPLSALILFILFTAFINLIMVSATSKWAFMSFIFIPMFAQMGISPDVTQCAFRIGDSSTNAITPFLFYMPLVLTYMRQYDKQITYGSLLKYTWRYSLCILAAWTLLFIVWYLLKIPMGL”, the protein production entry was “failed”.

For the sequence “MAETTPKVKGHVVILPYPVQGHLNPMVQFAKRLVSKNVKVTIATTTYTASSITTPSLSVEPISDGFDFIPIGIPGFSVDTYSESFKLNGSETLTLLIEKFKSTDSPIDCLIYDSFLPWGLEVARSMELSAASFFTNNLTVCSVLRKFSNGDFPLPADPNSAPFRIRGLPSLSYDELPSFVGRHWLTHPEHGRVLLNQFPNHENADWLFVNGFEGLEETQDCENGESDAMKATLIGPMIPSAYLDDRMEDDKDYGASLLKPISKECMEWLETKQAQSVAFVSFGSFGILFEKQLAEVAIALQESDLNFLWVIKEAHIAKLPEGFVESTKDRALLVSWCNQLEVLAHESIGCFLTHCGWNSTLEGLSLGVPMVGVPQWSDQMNDAKFVEEVWKVGYRAKEEAGEVIVKSEELVRCLKGVMEGESSVKIRESSKKWKDLAVKAMSEGGSSDRSINEFIESLGK”, the protein production entry is “failed”.

For the sequence “MTGTPQRSHPQPERTFVTIDFAALPDDFLWGTATSAYQIEGAVAEDGRSPSIWDTFSHTPGKIDNGDHGDVACDHYHRTHEDIELMRRLGTNAYRLSVAWPRVVPGGDGPVNAKGLAFYDRLVDDLLAAGITPSVTLYHWDLPQVLQDRGGWPERDTAEHFAAYAAVVAERLGDRVAHWATLNEPLCSAWIGHLEGKMAPGQTDLTAAVRASYHLLLGHGLAMQAIRAAAPDAQVGIVNNLSTIHAATDREEDLAAARRMDGHTNRWWLDPVHGRGFPQDMREVYGVELPERPGDMRLIGAELDWLGLNYYFPQTVAADPTGPAPQVRTVRRAGVPRTGMDWEIDAGGIEELLLRLTEEYGPRKLYVTENGSSFPDLVRPDGSVDDPERQEYLTAHLAACASAARKGAPLAGYFAWSLLDNFEWAYGYDKRFGLVHVDYATQVRTIKGSGHHYADIIGRARGRERKAA”, the protein production result is “failed”.

In the case of “MRKTPSHTEKKMVYSIRSLKNGTGSVLIGASLVLLAMATPTISSDESTPTTNEPNNRNTTTLAQPLTDTAAGSGKNESDISSPGNANASLEKTEEKPAASPADPAPQTGQDRSSEPTTSTSPVTTETKAEEPIEDNYFRIHVKKLPEENKDAQGLWTWDDVEKPSENWPNGALSFKDAKKDDYGYYLDVKLKGEQAKKISFLINNTAGKNLTGDKSVEKLVPKMNEAWLDQDYKVFSYEPQPAGTVRVNYYRTDGNYDKKSLWYWGDVKNPSSAQWPDGTDFTATGKYGRYIDIPLNEAAREFGFLLLDESKQGDDVKIRKENYKFTDLKNHSQIFLKDDDESIYTNPYYVHDIRMTGAQHVGTSSIESSFSTLVGAKKEDILKHSNITNHLGNKVTITDVAIDEAGKKVTYSGDFSDTKHPYTVSYNSDQFTTKTSWRLKDETYSYDGKLGADLKEEGKQVDLTLWSPSADKVSVVVYDKNDPDKVVGTVALEKGERGTWKQTLDSTNKLGITDFTGYYYQYQIERQGKTVLALDPYAKSLAAWNSDDSKIDDAHKVAKAAFVDPAKLGPQDLTYGKIHNFKTREDAVIYEAHVRDFTSDPAIAKDLTKPFGTFEAFIEKLDYLKDLGVTHIQLLPVLSYYFVNELKNHERLSDYASSNSNYNWGYDPQNYFSLTGMYSSDPKNPEKRIAEFKNLINEIHKRGMGAILDVVYNHTAKVDLFEDLEPNYYHFMDADGTPRTSFGGGRLGTTHHMTKRLLIDSIKYLVDTYKVDGFRFDMMGDHDAASIEEAYKAARALNPNLIMLGEGWRTYAGDENMPTKAADQDWMKHTDTVAVFSDDIRNNLKSGYPNEGQPAFITGGKRDVNTIFKNLIAQPTNFEADSPGDVIQYIAAHDNLTLFDIIAQSIKKDPSKAENYAEIHRRLRLGNLMVLTAQGTPFIHSGQEYGRTKQFRDPAYKTPVAEDKVPNKSHLLRDKDGNPFDYPYFIHDSYDSSDAVNKFDWTKATDGKAYPENVKSRDYMKGLIALRQSTDAFRLKSLQDIKDRVHLITVPGQNGVEKEDVVIGYQITAPNGDIYAVFVNADEKAREFNLGTAFAHLRNAEVLADENQAGPVGIANPKGLEWTEKGLKLNALTATVLRVSQNGTSHESTAEEKPDSTPSKPEHQNEASHPAHQDPAPEARPDSTKPDAKVADAENKPSQATADSQAEQPAQEAQASSVKEAVRNESVENSSKENIPATPDKQAELPNTGIKNENKLLFAGISLLALLGLGFLLKNKKEN”, the protein production result is “failed”.

Consider “MVSSLLMSFAPATVRVYATSTKGGSGGPKEEKNPIDFVLGFMTKQDQFYETNPLLKKVDEKEGTTTGGRGTVRGGKNSAPTPVPKKSEGGFGGLGSLFKK”, for which the protein production result is given as “failed”.

With “METNKNFAVIGLGEFGSRICEVLVDGGASVVAFDHDIQAVERIKKIVPAAMLVETTNEEALLKAPLDDVEVAIVAIGNNIEASVLTTTLLKQRDIPYVLARAVSPLHATVLRRVGANEVLNIEISAATRIARRLISPDVMDSIAVTKDFSIREIIVPKFFIGKTVGSVALKEKFNITLIALVRMALDIDSVGNPVKQEVMHYPEDDFELREGDKLFLIGSNIKLEEFRNM”, the protein production entry was “failed”.
